According to the Human Domainome abundance scans (Beltran et al. 2025):

B1: Tumor protein 63, residues 545 to 610; numbered along this chain, Q9H3D4 (parent)
chain: TDCSIVSFLARLGCSSCLDYFTTQGLTTIYQIEHYSMDDLASLKIPEQFRHAIWKGILDHRQLHEF

Variants of: B1
Test: abundance fitness (aPCA) (normalised: wild type 0, dead -1); higher = more abundant; growth selection in yeast, the domain comes from the species named
Details: Homo sapiens

Abundance fitness, by site and new letter:
H51: V -0.034; L -0.029; W -0.058; A -0.022; G -0.023; R -0.031; P -0.031; C -0.034; T 0.003; Y -0.075; M -0.009; E 0.005; S 0.013; Q 0.005; D -0.028; F -0.052; K -0.012; I -0.079
K55: A -0.074; S -0.057; W -0.192; F -0.212; H -0.106; V -0.071; E -0.018; Q -0.038; P -0.792; C -0.041; M -0.048; T -0.087; L -0.06; G -0.057; N -0.038; R -0.059; D -0.072
H60: L -0.018; P -0.38; T -0.027; W -0.017; N -0.015; R 0.012; V 0; I -0.045; C -0.004; D -0.13; E -0.077; F -0.003; Q -0.02; A -0.019; M -0.011; K -0.064; G -0.092; S -0.077; Y -0.014
G56: Y -0.505; F -0.649; Q -0.307; N -0.361; L -0.77; C -0.472; T -0.541; V -0.676; K -0.447; M -0.546; W -0.811; E -0.239; D -0.446; S -0.142; R -0.452; I -0.831; H -0.363; A -0.075
Q62: H -0.011; W -0.144; G -0.023; D -0.03; A -0.011; Y -0.083; L -0.039; S -0.025; N -0.056; E 0.013; K -0.021; V -0.051; T -0.023; R 0.006; I -0.151
I45: S -1.04; Y -0.821; T -0.588; V -0.021; W -0.967; Q -0.965; R -1.02; P -0.865
R50: M -0.002; W -0.128; G -0.274; K -0.067; L -0.036; F -0.149; D -0.712; S -0.102; A -0.092; Q -0.067; T -0.056; P -0.848; E -0.159; C -0.052; Y -0.174; H -0.03
P46: S -0.351; I -1.01; V -0.922; H -0.531; A -0.406; R -0.66; Q -0.387; E -0.155; T -0.46; M -0.928; Y -1.12; D -0.283; N -0.396; W -1.1; G -0.289; K -0.384; F -0.913; L -0.976
I57: W -0.895; F -0.203; Y -0.918; Q -0.611; M -0.105; G -0.781; V -0.082; A -0.369; C -0.107; L -0.025; T -0.323; P -1.04; H -0.899; K -0.51; D -0.962; N -0.799; E -0.887
D59: K -0.06; Y -0.054; G -0.02; E -0.006; V -0.034; F -0.09; H -0.024; C -0.058; R -0.087; L -0.074; W -0.161; T -0.111; M -0.066; I -0.084; N -0.079; A -0.009; Q -0.027
F49: N -0.058; H -0.004; M -0.014; Q -0.023; W -0.052; I -0.168; G -0.174; K -0.027; P -0.061; V -0.113; L -0.059; S -0.026; C -0.047; E -0.007; D -0.021; T -0.127
I53: S -0.918; N -0.783; M -0.403; K -0.25; Y -0.821; Q -0.99; T -0.787; H -0.887; P -1.07; W -0.62; E -0.893; D -0.907; F -0.921; R -0.945; L -0.117; G -0.979; C -0.528
A52: K -0.023; V -0.013; S -0.016; G -0.086; W -0.076; E -0.024; P -0.043; F -0.049; D -0.064; I -0.062; N -0.092; C -0.015; T -0.037; M -0.101; Y -0.116; L -0.024; H -0.068
R61: F -0.037; K 0.058; E -0.047; D -0.121; A -0.033; C -0.073; M -0.077; V -0.067; S -0.039; N -0.05; I -0.062; H -0.1; T -0.055; W -0.105; P -0.022
E47: Q -0.004; F -0.127; N -0.011; I -0.045; L -0.022; T -0.036; R -0.054; G 0.041; D 0.012; C -0.076; W -0.08; Y -0.002; S -0.02; H -0.067; A -0.014; P -0.009; M -0.04
L63: D 0.004; Q -0.016; W -0.054; Y -0.029; F -0.105; S 0.005; V -0.043; P -0.008; R -0.045; E 0.009; N -0.04; K -0.004; I -0.034; C -0.01; G -0.016; M 0.025; A 0.029; T -0.006
L58: S -0.007; K -0.001; T 0.002; A -0.01; E -0.015; G 0.002; Y 0.026; I 0; F -0.034; N -0.039; R 0.006; P -0.272; M -0.06; V -0.006; C 0.01
Q48: E 0.035; H -0.005; C -0.064; R -0.013; N -0.006; L -0.063; P -0.006; K -0.015; I -0.052; S -0.038; M -0.028; G -0.025; V -0.027; Y -0.078; D -0.04; W -0.203; A -0.024; T -0.023
E65: H -0.072; D 0.081; Q 0.113; A 0.002; P -0.082; R -0.065; C -0.023; N -0.027; K 0.002; M -0.089; I -0.099; L -0.08
H64: I -0.061; Q 0.029; S 0.016; V -0.019; W -0.075; G -0.035; R -0.019; F -0.064; D -0.028; T 0.011; E 0.034; P -0.02; A -0.002; N -0.007; K -0.018
W54: A -0.065; S -0.055; G -0.248; L 0.031; H -0.301; V -0.078; R -0.133; T -0.102; N -0.03; C -0.363; I -0.028
